The results in this text go back to the domain aggregation screens of Martell et al. (2025).

Bounds are passed on as bounds.

The nature of this data set: soluble fraction after stress (log2 fold change); higher = more stays soluble; pooled small domains, quantitative proteomics. The following applies: stress: pH 4. The gist of the method: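 Aggregation propensity is estimated from the fold change in each domain's soluble amount after acid stress. Pooled small-domain libraries were stressed at pH 4, and higher log2 values mean more stayed soluble.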
Regarding “HMSKSIGEALKEERRSLGLTQEQFIKGIISESFYSKVERGKNEIVAVDLLKILAANNISEEEFLSKLN”, the “soluble fraction (log2)” value was -0.168. Take “HMSKSPELMEKIKEFAEGYFRENGETPSNKTIAGAMGMGRSTVYYYLVDMAQRGMISYENGVISTEKIRKL”: the “soluble fraction (log2)” value is -0.65.

For the sequence “HMSKTDYKILYSDLNREDAKQLSLLLEDKKIPYQTSEDGKTIKIPEGMVNRFRMEVATMGVNF”, the “soluble fraction (log2)” value was -0.014. With “HMSKTKDVLVQLMAERGLTQSDIARALSVRPQAVQQWVSGKTRPTGKNLEALAEFLQLPPAVIVHGP” the figure was 0.344; with “HMSKTQVKSVLDDIKGIGVVRRKALIKHFNDIEAIKAAQLAELKAVAGMDSKSAQSVYDFFHK”, at least 0.43. As for “HMSKYERVYTGSEINVNHLKSQLEDAGISSVVRNDHESAIRAGFGSDYDRGVLLFVEKDNLLRAKHIIEKT”, the “soluble fraction (log2)” value worked out at 0.0771. For “HMSKYLAFTVKKNDELLPFIEKALNGISHTKAKAILANGGAMVNKNTITQYNYPLTPGMTVEISRH” the value was 0.187; for “HMSLDLNENEKTIFDIIQNKKTIRLSELKIEAGLSNKGWDKAMKSLTKQGLAKVVKTEDQLTVKLL”, 0.0483; for “HMSLEDNEVIQRMKVILDRFDEETAVDRTTAFKAVLDHIGKMDAESKTLEHMAEMLEALLDKVLEE”, -0.371. With “HMSLGPNAYGKPATALNILRETVMGKELFDHAFKTYSKRWMFKHPSPEDFFRTMEDASAVDLDWFWR” the figure was 0.22; with “HMSLGSQEYSIGFRNGDSTYHYIDKALKELAYEGVIDELSTQWFGSSRAVDFPSQKDALSELGYIA”, 0.22. For “HMSLGSSLFHARKKSGLTQEAVAEKLGVSRQTISKWETNETLPDIRQSKGLAMLYHMTLDELIE” the value was 0.138.

With “HMSLGTDVVPDFTGKGIKEAKTEFAAYSEGELYIIGEGEKVKEQFPLPGEKVNKNSDLILYV”, the “soluble fraction (log2)” value amounted to 0.0276.

With “HMSLIDLLQLNRKSKKLTLMNLVEMTGLSYGKVYRIFNGGIDKPTPDSLKLLAKALQLDYSYLFHKAGYL”, the “soluble fraction (log2)” value came to 0.266. With “HMSLIEQKSQIPLVQGGQRVDKVAAALFTDFSRAELTGWIQQGALTLDGAVVKPKYKVLGGEWLYLRASQS” the figure was -0.213. For “HMSLNIIEITAKKEINELKSFNIIYFNFDKNNSIYEYKISEREKKEILEIEKIIKNSDNVTNYEIRYSF” the value was -0.685; for “HMSLNQRIKEARIKMGYTQEQLGNLIGVAKTTISGYEKNREPDAATIGLIIDALKVDANFLFQ”, -1.2; for “HMSLNSELIARIENLIASIEDKRSWGYGFAESVLGQVQAGATLSPRQLEIIAKLEKENSYSVQLERQ”, -0.479. With “HMSLPALSAEEQKIVDALHGTPKGVDDIIAETGISSGALLRSLTMLELKKVIVRLPGNRIAPK” the figure was 0.113; with “HMSLPDREVVLETSSDSYYHFKTDHFQRQITYSAVRNAPVRLVTISAERAFEVISLNRRGERPEHLE”, -1.77; with “HMSLQEISDLISQAERADQEQLKEVLKQLHQVESGNQPMSKGFLSSALSTLNKYPALITSIGQLLFKLAT”, -0.723. On to “HMSLSEGVSADVVADVQARLMELGYMDEDDPDGNFSESTRIAVEHFQQQAGLPVTGTVDKATLDALNSPD”, for which the “soluble fraction (log2)” value was -0.231. For the sequence “HMSLSQLGLTPRQTDVLALLLKGQPNKLIARELGLSVETVKDHVAAVLRALNVSSRTQAVIAVSQMLQ”, the “soluble fraction (log2)” value is -0.533.

Take “HMSLSVEESYKLLDISPSAGDEEITKKFRLLALKYHPDKNRSKIEWANNIMSRLNQAYSVIMSSRFESNAE”: the “soluble fraction (log2)” value is 0.211. For “HMSLTTKSVEETLGITRQTLHNWIKEGLLPAPKKDFRNWYIWSDEDLENLRNIIEQKTLINNKKQAV” the value was -0.0603.

Consider “HMSMANKKDFILDTAQKLFMEQGFDQTSISQILEATQIARGTLYYYFSSKEEIMDAIIERTIEQ”, for which the “soluble fraction (log2)” value was -1.81. With “HMSMDYYNILGVNRNASTGEIKKAYKRASMQHHPDRGGNSDEFIKVQQAYDTLSDNHKRQAYDNP” the figure was 0.0506; with “HMSMDYYSTLGVSKTASASDIKKAYRKLAMANHPDKGGDSAKFAKITEAYDVLKDPQKRNNYDQFGTA”, 0.399; with “HMSMEQAKAEEIEKLGDNAPERLQAAALFAEKFFPQDVMDAVYKITETADGVRAIEHIMQTVK”, -0.37. For “HMSMISLPNFVGKDIETVKAWAKENGITLIINKVEDSAKKDTVISQNPTNSDYSKILKGSAFTVNIAKE” the value was 0.126; for “HMSMRILNHTVVKILKRYRIATDEQLQPLLDEAERSGRSLQDVVLDAKLVSETELTKLFADYAD”, 0.421. For “HMSMVGNIEKILVTGESKKSSELLAGRTENNRVVNFTGEKVLIGSMVNVRIEEVFPNSLGGSYLPS” the value was 0.0322; for “HMSNAIDDAVEKVISENLDLAKERGLQSMGPLMGLVMKELGGTADGKAVSEALRRKISEISD”, 0.114.

Turning to “HMSNEDAYIKLRNGFLATLSEADLLLFTLREEGKTQKEIADQLGYKTHSAVSKRLQTMRGQFEGYLKTQ”, the “soluble fraction (log2)” value was -0.818. For “HMSNEIIFNQKSITRFLMNPENNSPMIYPLELGHEMKVIKKNNDWLNVTDEKTGLNGWVISDDFGLTKPEG” the value was -0.133; for “HMSNETLFEFFEKNISQLTPTLVDNINRSLAVHSKKNVKLAIMIAAKSNVRNWNYISAILNRWEKE”, -1.21; for “HMSNIAQRLVLENALAKLNQEQQTIIDLRIIKGYSVAETARLLGKTESAVRTAQYRALKELAGILEED”, -0.0342. Regarding “HMSNIIIYPNPTNDGLIHIKGSKFPFNYALYNLSGKLIETGKKNQIQLNDRGVYLLKIQTEGQTYFKKII”, the “soluble fraction (log2)” value is -0.754. “HMSNNILEISSNKKNMKIQENKNLVESYYSKTENLYSFKLVFKNKRDLDQFLKEVYEDDSTINYKTSS”: the “soluble fraction (log2)” value was -0.524. With “HMSNPPLPFLAKTKVSWTGEQDGDLGFLENEVVKVFHVVDELWWQGSLSRNGAEGIFPRDFVEVISAP” the figure was -1.27; with “HMSNSWSYSEFMKAVESGQVESVTISGQSIKGTSRGGQAFESVLPAFDDKLMDTLLVNDVEVIGEKP”, -0.149. With “HMSNTGDIIRKLREESGVTAKELAHRIGLSASQMSRLESGKRRINSEVLTRIARALEVAPSQLID” the figure was 0.17; with “HMSNTIFGINGPVVTVASKDFSMQEMVYVGNERLVGEVISIDDDLTTIQVYEVTTGLKPGEPVVGTGSAM”, -1.64; with “HMSNVDYSQFKKDTVVEHTKFGRGIIIQTSGDGEDKIAAIAFKGLGVKRFSLAIAAASLKIIGKNDE”, 0.194. For “HMSNYFIEISKDSLARINDEIELDVLRETSDTIIISQEEKTNTISSFIKVLFERQIDILSIQNR” the value was -1.25; for “HMSNYYNILGVNKSSTQDEIKKAFRKKAVEHHPDKGGNEATFKKINEAYNTLSDNNKRHMYDMQQSG”, 0.267. On to “HMSPDALSNLPIGSEIKFTLWDGTEKRLVKHPAAYQFSRPFWMNLNEYTYVPVNRIPKNYEVIRL”, for which the “soluble fraction (log2)” value is -0.0954. For “HMSPEVEEISIDHLKAGMRILSDLRLPNGTLVAPKGSVVDAHFIKIVENYVISYFGNPFPDRIKVIM” the value was 0.144; for “HMSPEWTPAEQDAIDKASEGEYGEALQRVLSGDYEPMDIPDALWGVQQVADKDTYSSIQKKIADIGN”, 0.422; for “HMSPIPLPVERAIHKLGSDISLARRRRHISQASLAERMGASLSTVRRMEKGDVRVPIHFFARALHVFG”, 0.158.

Take “HMSPIQLKYNEYLIYIDEGKINTAEIHGNKITGKLKEGSEYVVTIYPELIASITEKLAENNVQTQLIQ”: the “soluble fraction (log2)” value is -0.466. With “HMSPLPDRESLGAIEKLISLLGSSEWTVREKATRELGAFGYLARPVLQRELATSGDPEVSRRLERILSNL” the figure was -0.00724; with “HMSPLTPEEAEVLRILGDHGDMTVDNIATEGKMSAAAVLRVLGVLSAYGLAVPSGPGRWGSRAA”, 0.152; with “HMSPPPRPSHPEAAGLRHLAFEVDNIDDAVRHLDRLGVPHEPVRTDEYTGRRFLFFTDPDRLPLELYEK”, -0.572.

On to “HMSPQIDYFDDEELDVYRQIAPEAYTDEQIEVFRDILYTLRPEEVEEWLISLEKREINLPLILRQEAIELI”, for which the “soluble fraction (log2)” value was determined as 0.156.

For the sequence “HMSPRQVTAVRSGSPMPVLPGEDWRLYDASGALVARGSGAAPIPKSTGLLRLNSEGLDGLADRWIWVL”, the “soluble fraction (log2)” value was -0.154. For “HMSPSRRENLTAAAKEYFVNTQIRHKTFGNGVIIKRSGNIAAIRFDNGTIKQIDLIAALQAKVLSIL” the value was -0.512; for “HMSPSTNKTFSFSKENISIGQTVFIKKLNQNATVLTLPNKSNQLQVQFGVITMNVKLEDLALPTN”, -0.0832; for “HMSPTSSRAAQARIRKMIESESPLKPISDSQLAARLGEEGISIARRTVAKYREQMNILPASQRRGV”, -0.0284. For “HMSPVPRIEIELTSSKEDGSWTWRAVGAREPRGSLDGALLAKPAAVGDVLRVETDQFLDGMTVTAILPPRD” the value was -0.6; for “HMSQAVEISSVKTQIDGKSYYLHTIKQGQTLYGISKAYGVSVEELTTVNPETSKGLKVGQIIKVPDTKT”, -0.303; for “HMSQDLVVLGDSMLNNALKAFHIDPNAIKKKYWDKLILDYHLKSKEEVLTEIALGKKINVMVAHQLTSIMD”, -0.238. For “HMSQEILSNQSIKDMIELGFEEQTIIDKIQTSTSDFDTTIEELKALKQLGASPTILSAMIKSIKK” the value was -1.97. “HMSQLDITEARIVVSGGLGMQGPENFKLLEELAKVLGGAVGASRPVVDNGWREYSNQVGQTGKIVAPELYV”: the “soluble fraction (log2)” value is -0.751. For “HMSQLETEEAKRIVLKDLLRLYNNYNIIELEEDEFDRFITYLNMPYDFLQKTSDYDLAVSIKRMYASY” the value was -1.79. On to “HMSQNISSTKLIPENIKIGMSVFVIPLQQKGIVQSLPNRSKEVLVQIGNAKINVKINNLKLIED”, for which the “soluble fraction (log2)” value was -0.238. For “HMSQNTHTIPSREDILGIFRSVNAPLDPQSLGKTLQVHADSMDVLVRRLKAMERDGQLKSDASGVFSLAD” the value was 0.314. With “HMSQNVQDVFLNHVRKSKNPVTVFLVNGVKLQGIITWFDNFSVLLRREGHTQLVYKHAISTVMPSGPIQLF” the figure was 0.22.

For “HMSQPALSYAFAKAQGVIVTALGDVAEVARRKGSQPQALAEVRRIAGRPLALREVDDAAFDRLLQDHYARS”, the “soluble fraction (log2)” value is -0.0203.
